The results in this text go back to US20140154255A1 (AbbVie / Abbott, published 2014).

Assay [1] addresses T1, human VEGF-A residues 27-191 of Accession #AAV38412 (human, UniProt P15692 27-191).
T1 construct: range 27-191
Description: BIAcore SPR; kd of this row is at the detection limit. As to the method:
(§1) The binding kinetics and affinity of the antibodies for VEGF (human VEGF-A residues 27-191 of Accession #AAV38412) was determined by using a BIAcore T200 surface plasmon resonance system (BIAcore, GE Healthcare, Piscataway, N.J.). Coupling running buffer was HBS-EP+ running buffer (10 mM HEPES, 150 mM sodium chloride, 3 mM EDTA 0.05% P-20, pH 7.4); assay running buffer was HBS-EP+ with 300 mM sodium chloride and 0.1 mg/mL BSA (Sigma A7906). Polyclonal goat anti-human Fc (Thermo Scientific prod#31125) was first immobilized to the biosensor surface in 10 mM sodium acetate, pH 4.5 using standard BIAcore amine coupling reagents (N-ethyl-N′-dimethylamino-propylcarbodiimide, EDC; N-hydroxysuccinimide, NHS; and ethanolamine HCl, pH 8.5). For binding kinetics assay a series of cycles were performed, each cycle consisted of 1) mAb capture, 2) Ag or buffer injection, 3) dissociation phase and 4) regeneration. Briefly, anti-VEGF antibodies were captured on parallel surfaces at a low flow rate of 10 μL/min. Capture levels were kept low to minimize avidity due to the dimeric nature of VEGF. No capture of the antibody was made on the reference surface to serve for primary referencing and as a negative control. […]
For orientation: Surface plasmon resonance follows binding to a sensor surface in real time, without labels.

Assay [2] addresses T2, unlabeled human VEGF (ELISA coat) (human, UniProt P15692-4 27-191, limits assumed). Description: ELISA on coated human VEGF, overnight assay, against bevacizumab (WT). The method, then:
(§2) Corresponding variants in DVD-Ig format were analyzed for binding kinetics by BIAcore only.
(§3) To detect identified variants binding to antigen, ELISA plates (Nunc-Immuno MaxiSorp plates, Nalge Nunc, Rochester, N.Y.) were coated overnight at 4° C. with unlabeled human VEGF at 1 μg/mL in 0.2 M sodium carbonate-bicarbonate buffer (pH 9.4, Pierce, Rockford, Ill.). The plates were then blocked with SuperBlock Blocking Buffer (Pierce, Rockford, Ill.) for 30 min and washed with Washing Buffer (PBS containing 0.1% Tween 20). All the washing steps were performed for three times. […] The plates were washed and 100 μL of goat anti-human kappa HRP-conjugated antibody (Southern Biotech, Birmingham, Ala.) diluted at 1:1000 in ELISA buffer was added to each well. After 30 minutes of incubation, plates were washed and bound antibodies were detected by addition of TMB 1 Component HRP Microwell substrate (BioFx #TMBW-1000-01). The reaction was terminated by addition of 100 μL/well of 650 nM Stop Reagent for TMB Microwell substrate and the absorbance was measured at 650 nm using a VERSAmax microplate reader (Molecular Devices, Sunnyvale, Calif.). Data were fitted using nonlinear regression with the software […]

Assay [3] addresses T1, human VEGF-A residues 27-191 of …. Description: BIAcore SPR; * detection limit. As to the method:
as §1

Assay [4] shares this target. In words: BIAcore SPR, KD WT/KD mutant.
In assay [5] the target is T2, unlabeled human VEGF (ELISA coat). In words: ELISA on coated human VEGF, 1 hr incubation, against bevacizumab (WT). As to the method:
as §2, §3

Assay [6] has as its target T1, human VEGF-A residues 27-191 of …. Description: BIAcore SPR.

T1 sequence (P15692 other isoform, or with tags, fused parts or gaps limits assumed): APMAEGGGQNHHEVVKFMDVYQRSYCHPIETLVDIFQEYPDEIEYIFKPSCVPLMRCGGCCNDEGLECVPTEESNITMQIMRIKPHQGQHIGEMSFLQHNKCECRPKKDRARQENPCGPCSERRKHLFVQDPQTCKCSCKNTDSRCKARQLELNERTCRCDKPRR
T2 sequence (P15692 other isoform, or with tags, fused parts or gaps limits assumed): as above

B1: bevacizumab variant H97Y (IgG format) (antibody, name in Kabat numbering, V domains shown)
VH: EVQLVESGGGLVQPGGSLRLSCAASGYTFTNYGMNWVRQAPGKGLEWVGWINTYTGEPTYAADFKRRFTFSLDTSKSTAYLQMNSLRAEDTAVYYCAKYPYYYGSSHWYFDVWGQGTLVTVSS
VL: DIQMTQSPSSLSASVGDRVTITCSASQDISNYLNWYQQKPGKAPKVLIYFTSSLHSGVPSRFSGSGSGTDFTLTISSLQPEDFATYYCQQYSTVPWTFGQGTKVEIKR
notes: IgG format; also called H97Y substitution
The Kd is the equilibrium constant for the complex coming apart. The low end stands for a tighter complex, the high end for a looser complex. As usually defined, the koff is a measure of how fast the partners let go of each other. Low values mean a long-lived complex, high ones a short-lived complex. Usually kon stands for the second-order rate constant of association. The low end stands for slow association, the high end for fast association. As to B1, the Kd in assay [1] was not above 0.243 nM. In addition, the “fold over WT (EC50 wild type/EC50 mutant), overnight assay” value in assay [2] came out at 9.3 fold. In addition, the koff in assay [3] is not above 1e-05 s⁻¹. The affinity improvement in assay [4] turned out to be 1.8 fold. The “fold over WT (EC50 wild type/EC50 mutant), 1-hour assay” value in assay [5] was determined as 2.6 fold. Moreover, in assay [6], the kon amounted to 41200 M⁻¹ s⁻¹.
